This passage reports normalized integrated FRET density (cells given rTg4510 microglia lysate) (normalized IFD) and normalized integrated FRET density (cells given rTg4510 non-microglia cell lysate) (normalized IFD) results from article PMC6145371.

The assay has as its target tau repeat domain (TauRD) conjugated to cerulean fluorescent protein (CFP) or yellow fluorescent protein (YFP). The experiment in a line: FRET or BRET; HEK293 biosensor cells with TauRD-CFP and TauRD-YFP; samples holding tau seeds (rTg4510 brain lysate 12 h, cell or microglia lysate 36 h, microglia conditioned media 72 h) added with 1% Lipofectamine; CFP to YFP FRET read by flow cytometry as integrated FRET density, normalised to cells given Lipofectamine only. (In BRET a luciferase serves as donor, and the signal depends on an acceptor being close.)

In the case of “tau repeat domain (TauRD) conjugated to cerulean fluorescent protein (CFP) or yellow fluorescent protein (YFP)”, the normalized integrated FRET density (cells given rTg4510 microglia lysate) (normalized IFD) amounted to 308 and the normalized integrated FRET density (cells given rTg4510 non-microglia cell lysate) (normalized IFD) was 3570.
